Test results published in patent US20150111251A1 (AbbVie / Abbott, published 2015).
Changes are numbered by the printed parent chain.

B1: AB363 (antibody, V domains shown)
VH: EVQLVQSGSELKKPGASVKVSCKASGYTFTNYGMNWVRQAPGQGLEWMGWINTYTGEPTYADDFKGRFVFSLDTSVSTAYLQISSLKAEDTAVYFCARKFLTTVVVTDYAMDYWGQGTTVTVSS
VL: DIQMTQSPSSLSASVGDRVTITCRASQDISNYLNWYQQKPGKAPKLLIYYTSRLQSGVPSRFSGSGSGTDFTLTISSLQPEDFATYYCQQGNTLPPTFGQGTKLEIK
notes: Full-length humanized antibody made in HEK 293-6E; also called hMAK199VH.1b/hMAK199VL.1
B2: AB369 (antibody, V domains shown)
VH: EVQLVQSGAEVKKPGASVKVSCKASGYTFTNYGMNWVRQAPGQGLEWMGWINTYTGEPTYADDFKGRVTMTTDTSTSTAYMELSSLRSEDTAVYYCARKFLTTVVVTDYAMDYWGQGTTVTVSS
VL: B1 VL
notes: Full-length humanized antibody made in HEK 293-6E; also called hMAK199VH.2/hMAK199VL.1
B3: AB376 (antibody, V domains shown)
VH: B2 VH with V2I, V68F, M70F, T72L, Y95F
VL: B1 VL with A43T, P44V, F71Y, Y87F
notes: Full-length humanized antibody made in HEK 293-6E; also called hMAK199VH.2a/hMAK199VL.1a
B4: AB375 (antibody, V domains shown)
VH: B2 VH with V2I, V68F, M70F, T72L, Y95F
VL: B1 VL
notes: Full-length humanized antibody made in HEK 293-6E; also called hMAK199VH.2a/hMAK199VL.1
B5: AB370 (antibody, V domains shown)
VH: B2 VH
VL: B1 VL with A43T, P44V, F71Y, Y87F
notes: Full-length humanized antibody made in HEK 293-6E; also called hMAK199VH.2/hMAK199VL.1a
B6: AB371 (antibody, V domains shown)
VH: B2 VH
VL: B1 VL with F71Y
notes: Full-length humanized antibody made in HEK 293-6E; also called hMAK199VH.2/hMAK199VL.1b
B7: AB356 (antibody, V domains shown)
VH: B1 VH with F95Y
VL: DIVMTQSPAFLSVTPGEKVTITCRASQDISNYLNWYQQKPDQAPKLLIYYTSRLQSGVPSRFSGSGSGTDYTFTISSLEAEDAATYYCQQGNTLPPTFGQGTKLEIK
notes: Full-length humanized antibody made in HEK 293-6E; also called hMAK199VH.1/hMAK199VL.2b
B8: AB381 (antibody, V domains shown)
VH: B2 VH with V2I, M70F
VL: B1 VL
notes: Full-length humanized antibody made in HEK 293-6E; also called hMAK199VH.2b/hMAK199VL.1
B9: AB367 (antibody, V domains shown)
VH: B1 VH
VL: B7 VL with A43T, P44V, Y87F
notes: Full-length humanized antibody made in HEK 293-6E; also called hMAK199VH.1b/hMAK199VL.2a
B10: AB377 (antibody, V domains shown)
VH: B2 VH with V2I, V68F, M70F, T72L, Y95F
VL: B1 VL with F71Y
notes: Full-length humanized antibody made in HEK 293-6E; also called hMAK199VH.2a/hMAK199VL.1b
B11: AB361 (antibody, V domains shown)
VH: B1 VH with V2I
VL: B7 VL with A43T, P44V, Y87F
notes: Full-length humanized antibody made in HEK 293-6E; also called hMAK199VH.1a/hMAK199VL.2a
B12: AB355 (antibody, V domains shown)
VH: B1 VH with F95Y
VL: B7 VL with A43T, P44V, Y87F
notes: Full-length humanized antibody made in HEK 293-6E; also called hMAK199VH.1/hMAK199VL.2a
B13: AB365 (antibody, V domains shown)
VH: B1 VH
VL: B1 VL with F71Y
notes: Full-length humanized antibody made in HEK 293-6E; also called hMAK199VH.1b/hMAK199VL.1b
B14: AB362 (antibody, V domains shown)
VH: B1 VH with V2I
VL: B7 VL
notes: Full-length humanized antibody made in HEK 293-6E; also called hMAK199VH.1a/hMAK199VL.2b
B15: AB364 (antibody, V domains shown)
VH: B1 VH
VL: B1 VL with A43T, P44V, F71Y, Y87F
notes: Full-length humanized antibody made in HEK 293-6E; also called hMAK199VH.1b/hMAK199VL.1a
B16: AB368 (antibody, V domains shown)
VH: B1 VH
VL: B7 VL
notes: Full-length humanized antibody made in HEK 293-6E; also called hMAK199VH.1b/hMAK199VL.2b
B17: AB380 (antibody, V domains shown)
VH: B2 VH with V2I, V68F, M70F, T72L, Y95F
VL: B7 VL
notes: Full-length humanized antibody made in HEK 293-6E; also called hMAK199VH.2a/hMAK199VL.2b
B18: AB373 (antibody, V domains shown)
VH: B2 VH
VL: B7 VL with A43T, P44V, Y87F
notes: Full-length humanized antibody made in HEK 293-6E; also called hMAK199VH.2/hMAK199VL.2a
B19: AB379 (antibody, V domains shown)
VH: B2 VH with V2I, V68F, M70F, T72L, Y95F
VL: B7 VL with A43T, P44V, Y87F
notes: Full-length humanized antibody made in HEK 293-6E; also called hMAK199VH.2a/hMAK199VL.2a
B20: AB374 (antibody, V domains shown)
VH: B2 VH
VL: B7 VL
notes: Full-length humanized antibody made in HEK 293-6E; also called hMAK199VH.2/hMAK199VL.2b

biological target: T1, Recombinant Human TNF-α/TNFSF1A (human, UniProt P01375 77-233); test: cell-based or functional assay
T1 sequence (P01375 77-233 limits assumed): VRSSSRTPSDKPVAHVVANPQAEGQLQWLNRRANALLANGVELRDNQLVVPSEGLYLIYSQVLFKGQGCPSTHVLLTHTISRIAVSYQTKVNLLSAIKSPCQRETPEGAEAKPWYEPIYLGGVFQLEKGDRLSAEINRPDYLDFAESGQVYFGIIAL

First: B1
Second: B2
The “TNFα Neutralization Assay IC50 nM (L929 cells)” value of the first is lower: 0.32 nM for the first, greater than 20 nM for the second.

Going from B3 to B4, the “TNFα Neutralization Assay IC50 nM (L929 cells)” value rises from 3.65 nM to 11.4 nM (3.1-fold).

First: B5
Second: B6
The “TNFα Neutralization Assay IC50 nM (L929 cells)” value of the first is lower: 3.78 nM for the first, greater than 20 nM for the second.

Compared with B7, B8 is 6.8-fold higher in “TNFα Neutralization Assay IC50 nM (L929 cells)” value: 0.87 nM for the first, 5.9 nM for the second.

First: B9
Second: B10
The “TNFα Neutralization Assay IC50 nM (L929 cells)” value of the first is lower: 0.53 nM for the first, greater than 20 nM for the second.

Compared with B11, B12 is 2.3-fold higher in “TNFα Neutralization Assay IC50 nM (L929 cells)” value: 0.82 nM for the first, 1.9 nM for the second.

B13 and B14 are within 1.5-fold of each other in “TNFα Neutralization Assay IC50 nM (L929 cells)” value: 1.52 nM for the first, 2.11 nM for the second.

First: B15
Second: B16
The “TNFα Neutralization Assay IC50 nM (L929 cells)” value of the first is 3.1-fold lower: 0.35 nM for the first, 1.09 nM for the second.

B17 and B18 cannot be ordered by “TNFα Neutralization Assay IC50 nM (L929 cells)” value: greater than 20 nM for the first, greater than 20 nM for the second.

B19 and B20 cannot be ordered by “TNFα Neutralization Assay IC50 nM (L929 cells)” value: greater than 20 nM for the first, greater than 20 nM for the second.

biological target: T1, Recombinant Human TNF-α/TNFSF1A; test: SPR (BIACORE), antibody captured, TNFα in solution
Experimental: The BIACORE assay (Biacore, Inc, Piscataway, N.J.) determines the affinity of antibodies with kinetic measurements of on-rate and off-rate constants. Binding of antibodies to a target antigen (for example, a purified recombinant target antigen) is determined by surface plasmon resonance-based measurements with a Biacore® 1000 or 3000 instrument (Biacore® AB, Uppsala, Sweden) using running HBS-EP (10 mM HEPES [pH 7.4], 150 mM NaCl, 3 mM EDTA, and 0.005% surfactant P20) at 25° C. All chemicals are obtained from Biacore® AB (Uppsala, Sweden) or otherwise from a different source as described. For example, approximately 5000 RU of goat anti-mouse IgG, (Fcγ), fragment specific polyclonal antibody (Pierce Biotechnology Inc, Rockford, Ill.) diluted in 10 mM sodium acetate (pH 4.5) is directly immobilized across a CM5 research grade biosensor chip using a standard amine coupling kit according to manufacturer's instructions and procedures at 25 μg/ml. Unreacted moieties on the biosensor surface are blocked with ethanolamine. Modified carboxymethyl dextran surface in flowcell 2 and 4 is used as a reaction surface. Unmodified carboxymethyl dextran without goat anti-mouse IgG in flow cell 1 and 3 is used as the reference surface. For kinetic analysis, rate equations derived from the 1:1 Langmuir binding model are fitted simultaneously to association and dissociation phases of all eight injections (using global fit analysis) with the use of Biaevaluation 4.0.1 software. Purified antibodies are diluted in HEPES-buffered saline for capture across goat anti-mouse IgG specific reaction surfaces. Antibodies to be captured as a ligand (25 μg/ml) are injected over reaction matrices at a flow rate of 5 μl/minute. The association and dissociation rate constants, kₒₙ (M⁻¹ s⁻¹) and koff (s⁻¹), are determined under a continuous flow rate of 25 μl/minute. Rate constants are derived by making kinetic binding measurements at different antigen concentrations ranging from 10-200 nM. The equilibrium dissociation constant (M) of the reaction between antibodies and the target antigen is then calculated from the kinetic rate constants by the following formula: KD=koff/kₒₙ. Binding is recorded as a function of time and kinetic rate constants are calculated. In this assay, on-rates as fast as 10⁶ M⁻¹ s⁻¹ and off-rates as slow as 10⁻⁶ s⁻¹ can be measured.

B1 and B2 are within 1.5-fold of each other in Kd: 0.86 nM for the first, 1.1 nM for the second.

B3 and B4 are the same in Kd: 1.3 nM for the first, 1.3 nM for the second.

B5 and B6 are within 1.5-fold of each other in Kd: 1.1 nM for the first, 1.2 nM for the second.

Compared with B7, B8 is 2.8-fold higher in Kd: 0.67 nM for the first, 1.9 nM for the second. The first binds more tightly here.

B9 and B10 are within 1.5-fold of each other in Kd: 1 nM for the first, 1.4 nM for the second.

B11 and B12 are within 1.5-fold of each other in Kd: 0.79 nM for the first, 0.59 nM for the second.

B13 and B14 are within 1.5-fold of each other in Kd: 0.91 nM for the first, 0.83 nM for the second.

B15 and B16 are within 1.5-fold of each other in Kd: 0.89 nM for the first, 1 nM for the second.

Compared with B17, B18 is 1.5-fold lower in Kd: 1.8 nM for the first, 1.2 nM for the second. The second binds more tightly here.

B19 and B20 are within 1.5-fold of each other in Kd: 1.8 nM for the first, 1.3 nM for the second.

B1 and B2 are within 1.5-fold of each other in koff: 0.0012 s⁻¹ for the first, 0.001 s⁻¹ for the second.

B3 and B4 are within 1.5-fold of each other in koff: 0.0014 s⁻¹ for the first, 0.0011 s⁻¹ for the second.

B5 and B6 are within 1.5-fold of each other in koff: 0.0012 s⁻¹ for the first, 0.0017 s⁻¹ for the second.

Compared with B7, B8 is 1.9-fold higher in koff: 0.00089 s⁻¹ for the first, 0.0017 s⁻¹ for the second.

First: B9
Second: B10
The koff of the first is 1.5-fold lower: 0.001 s⁻¹ for the first, 0.0015 s⁻¹ for the second.

B11 and B12 are within 1.5-fold of each other in koff: 0.00098 s⁻¹ for the first, 0.0014 s⁻¹ for the second.

B13 and B14 are within 1.5-fold of each other in koff: 0.001 s⁻¹ for the first, 0.0011 s⁻¹ for the second.

B15 and B16 are the same in koff: 0.0011 s⁻¹ for the first, 0.0011 s⁻¹ for the second.

B17 and B18 are within 1.5-fold of each other in koff: 0.0015 s⁻¹ for the first, 0.0012 s⁻¹ for the second.

B19 and B20 are within 1.5-fold of each other in koff: 0.0016 s⁻¹ for the first, 0.0015 s⁻¹ for the second.

B1 and B2 are within 1.5-fold of each other in kon: 1.4e+06 M⁻¹ s⁻¹ for the first, 940000 M⁻¹ s⁻¹ for the second.

B3 and B4 are within 1.5-fold of each other in kon: 1.1e+06 M⁻¹ s⁻¹ for the first, 900000 M⁻¹ s⁻¹ for the second.

Going from B5 to B6, the kon rises from 1e+06 M⁻¹ s⁻¹ to 1.5e+06 M⁻¹ s⁻¹ (1.5-fold).

Going from B7 to B8, the kon falls from 1.3e+06 M⁻¹ s⁻¹ to 860000 M⁻¹ s⁻¹ (1.5-fold).

B9 and B10 are within 1.5-fold of each other in kon: 1e+06 M⁻¹ s⁻¹ for the first, 1.1e+06 M⁻¹ s⁻¹ for the second.

Going from B11 to B12, the kon rises from 1.2e+06 M⁻¹ s⁻¹ to 2.4e+06 M⁻¹ s⁻¹ (2-fold).

B13 and B14 are within 1.5-fold of each other in kon: 1.1e+06 M⁻¹ s⁻¹ for the first, 1.3e+06 M⁻¹ s⁻¹ for the second.

B15 and B16 are within 1.5-fold of each other in kon: 1.2e+06 M⁻¹ s⁻¹ for the first, 1.1e+06 M⁻¹ s⁻¹ for the second.

B17 and B18 are within 1.5-fold of each other in kon: 820000 M⁻¹ s⁻¹ for the first, 940000 M⁻¹ s⁻¹ for the second.

B19 and B20 are within 1.5-fold of each other in kon: 890000 M⁻¹ s⁻¹ for the first, 1.2e+06 M⁻¹ s⁻¹ for the second.
